This assay deals with T1, CD24 (human, UniProt P25063 27-59).
T1 construct: whole, on cells; For MCF-7 and REH cells it says only CD24+; also called human CD24; hCD24
T1 chain (looked up): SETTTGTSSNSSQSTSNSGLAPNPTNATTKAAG
Nature of the assay: flow cytometry on CD24+ MCF-7 cells, FITC anti-human IgG-Fc secondary. The protocol: CD24⁺ MCF-7 cells in 100 μl culture medium at a cell density of 1×10⁶/ml were incubated with 100 μl serially diluted IMM47H and hIgG-Fc (3-fold dilution, starting at 30 μg/ml), respectively, at 4° C. for 1 h. Cells were washed with cold PBS twice, and then incubated with 100 μl FITC-conjugated secondary antibody against human IgG-Fc (Cat #F9512, Sigma) for 45 min. Cells were washed twice and re-suspended in 200 μl PBS. Then, the cells were subject to FACS analysis using a flow cytometer (Merck Millipore, Guava® easyCyte 5HT).
Background: A flow cytometer gives signals particle by particle.

B1: IMM47H (antibody, human IgG1, kappa, V domains shown)
VH: DVQLQESGPGLVKPSETLSLTCTVSGYSITSGYSWHWIRQPPGKGLEWIGYIHYSGSTKYNPSLKSRVTISVDTSKNQFSLKLSSVTAADTAVYYCARGADYALDYWGQRTSVTVSS
VL: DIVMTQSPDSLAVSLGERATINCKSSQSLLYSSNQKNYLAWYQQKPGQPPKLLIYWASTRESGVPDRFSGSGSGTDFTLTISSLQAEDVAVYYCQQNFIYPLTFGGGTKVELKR
notes: also called humanized anti-CD24 antibody
Take B1: the binding result is recorded as “binds”.

Source of the values: US20230110607A1 (IMMUNEONCO BIOPHARMACEUTICALS SHANGHAI, published 2023).
